Article PMC6399350, “Heterologous calcium-dependent inactivation of Orai1 by neighboring TRPV1 channels modulates cell migration and wound healing” (Communications Biology, 2019)
No end group written: not given here.

Tests used:
[1] = target: T1, Orai1-COOH-DsRed (carboxyl terminus of Orai1 fused to the red fluorescent protein) (human); assay: peptide or protein array; TIRFM microarray; Orai1-COOH-DsRed printed on poly-D-lysine coated glass as bait, ANK domains fused to GFP in solution at 1 uM, 3 min incubation, wash with saline, GFP fluorescence read; conditions: both partners purified
T1 construct: also called Orai1-dsRED-COOH peptide; source: spotted on the microarray slide; not shown: DsRed, C-terminal, kept
T1 chain: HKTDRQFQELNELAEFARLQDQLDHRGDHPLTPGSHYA

[2] = target: T2, ANK1 domain printed on the microarray slide as bait (rat); assay: peptide or protein array; TIRFM microarray; ANK1 domain printed on poly-D-lysine coated glass as bait, Orai1 terminus fused to GFP in solution, GFP fluorescence read; conditions: both partners purified
T2 construct: ankyrin domain 1 of rat TRPV1, 110-152; The methods say 'the ANK1 domain (see above)', which points to the ANK1-GFP fusion; Kept apart from m6 for that reason; source: purified peptide, printed on glass microarray slides coated with poly-D-lysine
T2 chain: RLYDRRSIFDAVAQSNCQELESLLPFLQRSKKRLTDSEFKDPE

Binder | binding result [1] | binding result [2]
FGELPLSLAACTNQLAIVKFLLQNSWQPADISARDS (domain or fragment, ankyrin domain 4 of rat TRPV1, 247-282; source: HEK293 in suspension, sonicated, immunoprecipitated with anti-GFP antibody (microarray); not shown: enhanced GFP, C-terminal, kept) [ANK4-GFP (fourth ankyrin domain of rat TRPV1 fused to GFP)] | binds | 
HKTDRQFQELNELAEFARLQDQLDHRGDHPLTPGSHYA (domain or fragment, human, also: fused to GFP, source: HEK293 in suspension, sonicated, immunoprecipitated with anti-GFP antibody (procedure as for the ANK-GFP fusions); not shown: GFP, C-terminal, kept) [Orai1-COOH-GFP (carboxyl terminus of Orai1 fused to GFP)] |  | binds
RLYDRRSIFDAVAQSNCQELESLLPFLQRSKKRLTDSEFKDPE (domain or fragment, ankyrin domain 1 of rat TRPV1, 110-152; source: HEK293, transfected, in lysate (co-IP); HEK293 in suspension, sonicated, immunoprecipitated with anti-GFP antibody (microarray); not shown: enhanced GFP, C-terminal, kept) [ANK1-GFP (first ankyrin domain of rat TRPV1 fused to GFP)] | binds | 
TGKTCLLKAMLNLHNGQNDTIALLLDVARKTDSLKQFVNASYTDSYY (domain or fragment, ankyrin domain 2 of rat TRPV1, 153-199; source: HEK293, transfected, in lysate (co-IP); HEK293 in suspension, sonicated, immunoprecipitated with anti-GFP antibody (microarray); not shown: enhanced GFP, C-terminal, kept) [ANK2-GFP (second ankyrin domain of rat TRPV1 fused to GFP)] | binds | 
KGQTALHIAIERRNMTLVTLLVENGADVQAAANGDFFKKTKGRPGFY (domain or fragment, ankyrin domain 3 of rat TRPV1, 200-246; source: HEK293, transfected, in lysate (co-IP); HEK293 in suspension, sonicated, immunoprecipitated with anti-GFP antibody (microarray); not shown: enhanced GFP, C-terminal, kept) [ANK3-GFP (third ankyrin domain of rat TRPV1 fused to GFP)] | binds | 
